Laboratory results published in PMC11381335, “Unraveling the structure and function of a novel SegC protein interacting with the SegAB chromosome segregation complex in Archaea” (Nucleic Acids Research, 2024).
One block for each compound: values may come before it.

Assays:
[1] = target: T1, SegC (SSO0033) (Saccharolobus solfataricus, UniProt Q981B4); test: X-ray crystal structure of ATP-soaked SegC crystals; assay type: binding; conditions: apo crystals soaked within one minute in 20 mM ATP, 2 mM MgCl2, pH 7.5; ADP modelled at the interface of two dimers (Tyr61, Arg73)
T1 construct: full length 165 residues, C-terminal His6 (pET21b), E. coli BL21(DE3)

[2] = target: T1, SegC (SSO0033); test: malachite green phosphate release; assay type: biochemical; conditions: 10 uM protein, 1 mM NTP, 2 mM MgCl2, 100 mM NaCl, pH 7.5, 37 °C, 1 h; no DNA
[3] = target: SegC labeled with Alexa488 green-fluorescent dye (Saccharolobus solfataricus); test: fluorescence polarisation; 10 nM Alexa488-labeled SegC; SegA or SegB in 2-fold serial dilution from 10 uM; room temperature, 30 min; 20 mM HEPES-NaOH pH 7.3, 100 mM NaCl, 2 mM MgCl2; concentration of protein that binds 50% of the labeled SegC
[4] = target: SegC (SSO0033) (Saccharolobus solfataricus); test: crystal structure; SegC crystals grown in 100 mM Tris-HCl pH 8.5, 300 mM potassium thiocyanate, 20°C; 2.8 Å; also soaked with 20 mM ATP (SegC-ADP)

T1 sequence (Q981B4 entry or part of it): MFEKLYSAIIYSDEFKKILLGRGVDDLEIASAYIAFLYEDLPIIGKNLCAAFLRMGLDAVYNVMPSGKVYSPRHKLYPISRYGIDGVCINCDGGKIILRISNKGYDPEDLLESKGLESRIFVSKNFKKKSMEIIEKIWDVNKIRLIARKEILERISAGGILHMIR
Chain of SegC labeled with Alexa488 green-fluorescent dye (Saccharolobus solfataricus) (Q981B4 entry or part of it): as above

Compound: Nc1ncnc2c1ncn2[C@@H]1O[C@H](COP(=O)(O)OP(=O)(O)O)[C@@H](O)[C@H]1O [ADP]
X-ray crystal structure of ATP-soaked SegC crystals [1]: In this SegC-ADP complex structure, two residues (Tyr61 and Arg73) were found to interact

Compound: Nc1ccn([C@@H]2O[C@H](COP(=O)(O)OP(=O)(O)OP(=O)(O)O)[C@@H](O)[C@H]2O)c(=O)n1 [CTP]
malachite green phosphate release [2]: SegC exhibited catalytic activity against all of the tested NTPs with no apparent preference

Compound: SegC (SSO0033) (natural protein)
stoichiometry N [4]: 4

Continued, values first:

Kd [3]: 1.8 µM
Compound: SegA (natural protein)

Kd [3]: 1.4 µM
Compound: SegB (natural protein)
